One block for each substance: values may come before it.
Experiments:
Assay in all cases: SEC
[1] = target: Human apolipoprotein E4 W264C (human) (UniProt P02649)
[2] = target: Human apolipoprotein E4 S94C (human) (UniProt P02649)
[3] = target: Human apolipoprotein E4 S290C (human) (UniProt P02649)

stoichiometry N [1]: 4
Substance: Human apolipoprotein E4 W264C (from UniProt P02649 19-317) (natural protein)

stoichiometry N [2]: 4
Substance: Human apolipoprotein E4 S94C (from UniProt P02649 19-317) (natural protein)

stoichiometry N [3]: 4
Substance: Human apolipoprotein E4 S290C (from UniProt P02649 19-317) (natural protein)
